# The supplement of paper PMC9942255
# Values joined by “and” are separate entries in the source; they are usually repeats but may differ in a detail not shown here. Equal values may be shown once.
# System: Bacillus subtilis DB104 (SP-AmyQ fusion secretion)
# Assay: AmyQ secretion efficiency, weighted average sort bin (1 = best secretion, 10 = worst) (bin number (weighted average, 1-10)); higher = lower secretion efficiency
# Summary of the method: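 The secretion score was taken as the read-frequency-weighted mean bin number, normalised to beads per bin, with low-abundance sequences excluded. Bins came from large-particle flow cytometry sorting of occupied alginate beads (~65 nL, about 0.3 cells each, with fluorescein-starch) into 10 equally populated groups by green/red fluorescence ratio after about 13 h at room temperature and nile red staining. The cells were a B. subtilis DB104 library with mature AmyQ fused to designed signal peptides, integrated at amyE, and each bin's amplicons were Illumina-sequenced.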
row,Sequence,AmyQ secretion efficiency
1,MSTSTSSSLISSTVLSTVVISSLLFPGAAGASSK,2.7
2,MKKVRRATALFLGLTPAGANAADL,7.17
3,MKLRKVLTGSVLSLGLLVSASPIFATSP,1.63
4,MKSKGSIMACLILFSFTITTFINTETLSAFSN,6.34
5,MKKVMLATALFLGLTPAGANAARR,4.33
6,MKTLRTLCVLMILSGVIFFGLKCDAKDI,4.31
7,MRPVFPLILSAVLFLSCFFGARQTEASNSKR,2.41
8,MKKRITYSLLALLAVVAFAFFSIAGAKAAEA,4.27
9,MKKRLIAPMLLSAASLAFFAMSGSDQAAAY,4.18
10,MKKAFILSAAAAVGLFTFGGVQQLSAKEL,3.38
11,MTMLRKIIGWILLLCIIPLFAFTVIASGATD,6.31
12,MLMLCLWFTVFSLFLVLLPGKALGAVD,5.08
13,MKKAAAVLLSLGLVFDESYGAGHVAEAKTK,2.18
14,MKKGIIRFLLVSFVLFFALRRKKKRVQAAPA,5.81
15,MKWMCSICCAAVLLAGGARQAEAV,2.15
16,MKRLFMKASLVLFAVVFVFAVKGAPIKAETH,2.24
17,MKRITIIITMFIAAAVISLTGTAEAAEK,2.84
18,MKLSVKIAGVLTVAAAAMTAKMYSTAKGN,6.41
19,MHLIRAAGAVCLAVVLIAGCRFNEDQHQAEGDED,6.29
20,MLCVMMLLFSAIASFPVSMQAKDQ,5.6
21,MIAYFGKCLLLVTIMFLGVLFGMQQYNHG,6.5
22,MRNLTKTSLLLAGLCTAAQMVFVTHSTASAEES,3.1
23,MFKFKKNGKSRRTAALMSISLFSATASAAST,4.18
24,MKRLLSTLLIGIMLLTFAPSAFAAQD,1.6
25,MRSYIKVLTMCFLGLILFVPTQLADNS,5.96
26,MSLWMSKTLVVLFTIVTFGLVSPPAALMADKP,2.43

row,Sequence,AmyQ secretion efficiency
1,MKRLFMKASLVLFAVVFVFAVKGAPAKAATH,1.71
2,MFNRLFRVCFLAALIMAFSSSSLFISLVTLPNSVYAQKP,4.04
3,MKVLLSALLLLLFAFEPSASGAPR,3.63
4,MKKIWIGMLAAAVLLLMVPKVDLADAA,4.2
5,MKNMSCKLVVSVTLFFSFLGIFVLAHAQNS,4.32
6,MKLKSKLLLSCLALSTVFVATTIANAKRR,7.22
7,MGLGKKLSVAVAASFMSLSISLPGVQMAEG,3.92
8,MGLGKKLSVAVAASFMSLSISLPGVQTAEG,3.78
9,MSGSSFVLIVCIIFTSALFPTFSSVTAAQG,1.04
10,MKSRTIWTIILGALLVCCIAVAYTLTKSQAGASSS,5.1 and 5.65
11,MRGKSAVLLSLIMLIAGFLISFHFQM,7.78
12,MTKLKMLSMLTVMIASLFIFSSQMLAVQY,4.6
13,MKSKGSIMACRRKRRRTITTFINTETISAFSN,6.8
14,MSTNLLSSLAISALSLGLLVSAPTASFAAES,3.94
15,MKKRLIAPMLLSAASLAFFAEEEEDEAQAAAY,3.9
16,MKKKRLFIFSAILTLSIFAPNETFAQTA,2.43
17,MKRLFMKASLVLFAVVFVFAVKGAPAKAAKR,3.29
18,MKKWMAGLFLAAAVLLCLKRRRKRIQGASS,6.89
19,MKNMSCKLVVSVTLFFSFLTIGPLLHAQNS,1.77
20,MFNRLFRVCFLAALIMAFTLPNSVYPQKP,7.22
21,MPYLKRVLLLLVTGLFMSLFAVTATMSAQTG,1.29
22,MRKKRAVLLSLIMLIAGFLISFSFQM,7.34
23,MRPVFPLILSAVLFLSCFFFGARQTEASASKR,1.8
24,MKKWMAGLFLAAAVLLCLMVPQQIQPASS,7.7
25,MKWMCSICCAAVLLAGGAAASSSVVAQAEAV,3.55
26,MKQFAITLSVLCALILLVPTLLVIPFQHNKEAKASV,5.85
